Test results as given in patent US7939292B2, “Modified heparinase III and methods of sequencing therewith” (Massachusetts Institute of Technology, priority 2000, dated 2011).

Columns and labels:
B16BL6 melanoma [1] = test: Primary tumor growth of B16BL6 melanoma in mice treated with heparinases; format: in vivo; details: 0.5 mg/kg/day
Description: Heparinases I and III, which have very distinct substrate specificities for cleaving HLGAGs, were employed as tools to investigate the role of HLGAGs in tumor growth and metastasis. While heparinase I cleaves at the highly sulfated regions of HLGAGs, heparinase III only cleaves at the under-sulfated regions of the polysaccharide chain, thereby rendering these enzymes powerful tools to investigate in vivo and in vitro roles of HLGAGs, in development, morphogenesis, angiogenesis etc. To examine the roles of HLGAGs in tumor growth and metastasis, we used B16BL6 melanoma as a model system and treated tumor-bearing mice with either heparinases I or III to investigate both primary tumor growth as well as tumor metastasis. Consistent with the current paradigm, heparinase I accelerated tumor growth (FIG. 8). At a dosage of 0.5 mg/kg/day of heparinase I, tumor growth was increased by about 39%. […] Inhibition of primary tumor growth by heparinase III was first observed at 2 mg/kg per day. Tumor growth was inhibited by 73% at 12 mg/kg per day, the maximum dosage tested in the study (FIG. 8).
Mice, 15 days after tumor implantation with B16BL6 melanoma, were examined. 4×10^5 log growth phase B16BL6 melanoma cells in 0.1 ml PBS were injected to the flank of C57BL/6 mice on day 1. Daily injection of 0.1 ml of PBS, heat inactivated hep III or active heparinase III (2 mg/ml, recombinantly expressed, purified, buffer exchanged with PBS, and concentrated) started at the day 4 and continued throughout the experiment. At day 7, osmotic pumps (100 μl capacity delivering at 0.5 μl per hour) containing PBS or 3 mg/ml hep III were implanted subcutaneously at a place remote from the tumor site. Mice were sacrificed at day 15.
FIG. 8 depicts the tumor volume of the tumors isolated from the mice described above. Tumor volume was measured daily after day 7 with a caliper and calculated with the formula [volume=0.52×(width)^2×(length)].

B16BL6 melanoma [2] = test: Histological examination of tumor samples (apoptosis, TdT labeling); format: in vivo, mice
Protocol: Immunohistochemistry was done as described (Parangi et al., 1996; O'Reilly et al., 1994) with minor modifications. Briefly, tumor tissues were fixed in either 4% (vol/vol) formaldehyde overnight for von Willebrand factor (vWF) staining and terminal deoxynucleotide transferase (TdT) labeling or in Glyo-Fixx solution overnight for Ki-67 nuclear antigen staining. Tissues were embedded in paraffin according to standard histological procedures. For vWF staining, sections (5 μm thick) were incubated with 0.2 N HCl for 10 min. autoclaved in a Coplin jar immersed with Target retrieval Solution (Dako) for 15 min. and permeabilized with 2 μg/ml proteinase K at 37° C. for 15 min. Sections were incubated with rabbit anti-human vWF antibody coupled with horseradish peroxidase (HRP) (Dako). Positive staining was detected by substrate reaction with diaminobenzidine. Sections were counterstained with Gill's hematoxylin and mounted in Permount (Fisher). […] Capillary density was determined by counting the number of vWF-positive capillaries per high power field (HPF, ×200). The proliferative and apoptotic indices of tumor cells within areas of viable tumor were estimated from the percentage of cells scored under a light microscope at 400-fold magnification. A minimum of 2000 cells were counted in each animal. # indicates standard error.

B16BL6 melanoma cells = test: Lung metastasis of heparinase treated B16BL6 cells after tail vein injection; format: in vivo, mice; details: cells treated 30 min at 37° C. before tail vein injection; 13 days
Protocol: We next investigated the ability of heparinase treated B16BL6 melanoma cells to metastasize to the lungs. B16BL6 cells in log growth phase were briefly trypsinized and resuspended in PBS to a final concentration of 1×10^6 per ml. Prior to injection, cells were treated with either PBS, hep I […] or hep III […] for 30 min. at 37° C. 0.2 ml cell suspensions (2×10^5 cells) were injected slowly via tail vein. Mice were sacrificed 13 days later and lungs were harvested, rinsed with tap water. The number of nodules on lung surface were counted with the assistance of a dissection microscope. * indicates p<0.05 (Mann-Whitney test).

B16BL6 cells = test: Growth in mice of B16BL6 cells after heparinase removal of the HLGAG coat; format: in vivo; details: HLGAG coat removed
Description: There are two possible mechanisms by which heparinase may be acting on tumor cells. For instance, heparinase III treatment of cells may result in cells losing their unique surface HLGAG coat and this directly or indirectly may impinge on their ability to grow or metastasize. On the other hand heparinase III treatment of cells may also result in the generation of distinct HLGAG fragments, and these fragments could then directly or indirectly modulate tumor cell function. It was thought that heparinase III may function though either one of these mechanisms or through some combination of these mechanisms. To investigate the mechanisms of action further, we treated B16BL6 cells with either heparinases I or III, to remove the HLGAG coat on the tumor cell surface.
In further support of this conclusion ex vivo digestion of the HLGAG coat present on tumor cells with either heparinase, followed by centrifugation and resuspension in PBS to remove the enzyme and HLGAG fragments released from the cell surface, prior to in vivo injection results in the cells being functionally identical to controls. Thus the released tumor cell HLGAG fragments appear to play the key role in modulating tumor growth and metastasis.

Erk-1, 2 = Erk-1, 2 activation in FGF2 stimulated B16BL6 cells (immunoblot); format: cell-based; details: enzyme 200 nM 30 min before 50 ng/ml FGF2
Protocol: a. Methods: B16BL6 cells in 10 cm culture dishes were serum starved for 48 hours before stimulation with 50 ng/ml FGF2. Cells were stimulated for 20 minutes before whole cell lysates were prepared with 1 ml modified RIPA buffer containing various enzyme inhibitors (50 mM Tris-HCl, pH 7.4, 1% NP-40, 0.25% Na-deoxycholate, 150 mM NaCl, 1 mM EDTA, 1 mM PMSF, 1 μg/ml aprotinin, leupeptin, and pepstatin, 1 mM activated Na3VO4, 1 mM NaF). Protein concentration in the lysate was determined using the Bio-Rad protein assay kit (BioRad) and adjusted accordingly for electrophoresis analysis. For the heparinase treated groups, cells were treated with either hep I or hep III (200 nM) for 30 min at 37° C. prior to addition of FGF2. The immunoblot was probed with anti-Erk-1, 2 or anti-phospho-Erk-1, 2 antibody (New England Biolabs; MA) and detected by anti-rabbit IgG conjugated to HRP using SuperSignal West Pico Chemiluminescent substrate (Pierce, Ill.).

FGFR1 = FGFR1 phosphorylation in B16BL6 tumor samples; set-up: species or system mice; details: mouse, in vivo
Protocol: c. Effect of treatment of tumor with hep I and hep III in FGFR1 activation compared to PBS. Level of phosphorylated FGFR1 in tumor samples was assessed by standard immunoprecipitation followed by Westernblotting with phosphotyrosine specific antibody. Primary B16BL6 tumors were grown and treated as described earlier and at day 15 the tumor was harvested in cold modified RIPA buffer containing enzyme inhibitors and homogenized. The homogenates were past through 25-gauge needle 3 times and centrifuged. The supernatant was adjusted for protein concentration using the Bio-Rad protein assay kit (Bio-Rad). FGFR1 was immunoprecipitated with poly-clonal anti-FGFR1 antibody (Santa Cruz Biotechnology, Inc., CA). Samples were then pelleted, washed, and eluted from the beads by addition of sample buffer and boiled for 3 minutes (Kapila, Y. L., Wang, S. & Johnson, P. W. Mutations in the heparin binding domain of fibronectin in cooperation with the V region induce decreases in pp125(FAK) levels plus proteoglycan-mediated apoptosis via caspases. J Biol Chem 274, 30906-13 (1999).). After electrophoresis, the gel was transferred to nitrocellulose membrane by standard methods. The immunoblot was probed with phosphotyrosine specific antibody conjugated to HRP (RC20; Transduction Laboratories, Lexington, Ky.) and developed with SuperSignal West Pico Chemiluminescent substrate. […]

Akt = Akt activation in B16BL6 tumor; set-up: species or system mice; details: mouse, in vivo
Protocol: f. Effect of heparinase treatment on Akt activation. The primary tumor was treated and processed as described above. Akt antibody and phospho-Akt antibody from New England Biolabs were used to probe the immunoblot.

B1: heparinase I: HLGAG degrading enzyme that cleaves at the highly sulfated regions of HLGAGs (protein, UniProt Q05819 22-384, looked up)
Heparin lyase I: QQKKSGNIPYRVNVQADSAKQKAIIDNKWVAVGINKPYALQYDDKLRFNGKPSYRFELKAEDNSLEGYAAGETKGRTELSYSYATTNDFKKFPPSVYQNAQKLKTVYHYGKGICEQGSSRSYTFSVYIPSSFPDNATTIFAQWHGAPSRTLVATPEGEIKTLSIEEFLALYDRMIFKKNIAHDKVEKKDKDGKITYVAGKPNGWKVEQGGYPTLAFGFSKGYFYIKANSDRQWLTDKADRNNANPENSEVMKPYSSEYKTSTIAYKMPFAQFPKDCWITFDVAIDWTKYGKEANTILKPGKLDVMMTYTKNKKPQKAHIVNQQEILIGRNDDDGYYFKFGIYRVGNSTVPVTYNLSGYSETAR
increase of tumor growth (B16BL6 melanoma [1]): about 39%
apoptosis in tumor samples, enzyme treated tumors (B16BL6 melanoma [2]): reduced apoptosis
ability of treated B16BL6 cells to metastasize to the lungs compared to PBS treated cells (B16BL6 melanoma cells): marginally effected, if any
ability of treated B16BL6 cells to grow in mice compared to untreated cells (B16BL6 cells): no effect
Erk-1, 2 activation upon FGF2 stimulation (Erk-1, 2): increased Erk-1, 2 activation
phosphorylation of FGFR1 in primary tumor (FGFR1): opposite effect on the phosphorylation of FGFR1
activation of Akt in tumor (Akt): no change in activation of Akt
